Columns and labels:
Assay in all cases: cryo-EM structure
[1] = target: ribosomal protein S12e (rabbit 40S subunit) (rabbit, UniProt G1SFR8 1-132)
[2] = target: ribosomal protein S23e (rabbit 40S subunit) (rabbit, UniProt G1SZ47 1-143)
[3] = target: ribosomal protein S10e (rabbit 40S subunit) (rabbit, UniProt G1T168 1-165)
[4] = target: ribosomal protein S3e (rabbit 40S subunit) (rabbit, UniProt G1TNM3 1-243)

Measured: binding result

B1: DHX29, recombinant human (enzyme)
chain: MGGKNKKHKAPAAAVVRAAVSASRAKSAEAGIAGEAQSKKPVSRPATAAAAAAGSREPRVKQGPKIYSFNSTNDSSGPANLDKSILKVVINNKLEQRIIGVINEHKKQNNDKGMISGRLTAKKLQDLYMALQAFSFKTKDIEDAMTNTLLYGGDLHSALDWLCLNLSDDALPEGFSQEFEEQQPKSRPKFQSPQIQATISPPLQPKTKTYEEDPKSKPKKEEKNMEVNMKEWILRYAEQQNEEEKNENSKSLEEEEKFDPNERYLHLAAKLLDAKEQAATFKLEKNKQGQKEAQEKIRKFQREMETLEDHPVFNPAMKISHQQNERKKPPVATEGESALNFNLFEKSAAATEEEKDKKKEPHDVRNFDYTARSWTGKSPKQFLIDWVRKNLPKSPNPSFEKVPVGRYWKCRVRVIKSEDDVLVVCPTILTEDGMQAQHLGATLALYRLVKGQSVHQLLPPTYRDVWLEWSDAEKKREELNKMETNKPRDLFIAKLLNKLKQQQQQQQQHSENKRENSEDPEESWENLVSDEDFSALSLESANVEDLEPVRNLFRKLQSTPKYQKLLKERQQLPVFKHRDSIVETLKRHRVVVVAGETGSGKSTQVPHFLLEDLLLNEWEASKCNIVCTQPRRISAVSLANRVCDELGCENGPGGRNSLCGYQIRMESRACESTRLLYCTTGVLLRKLQEDGLLSNVSHVIVDEVHERSVQSDFLLIILKEILQKRSDLHLILMSATVDSEKFSTYFTHCPILRISGRSYPVEVFHLEDIIEETGFVLEKDSEYCQKFLEEEEEVTINVTSKAGGIKKYQEYIPVQTGAHADLNPFYQKYSSRTQHAILYMNPHKINLDLILELLAYLDKSPQFRNIEGAVLIFLPGLAHIQQLYDLLSNDRRFYSERYKVIALHSILSTQDQAAAFTLPPPGVRKIVLATNIAETGITIPDVVFVIDTGRTKENKYHESSQMSSLVETFVSKASALQRQGRAGRVRDGFCFRMYTRERFEGFMDYSVPEILRVPLEELCLHIMKCNLGSPEDFLSKALDPPQLQVISNAMNLLRKIGACELNEPKLTPLGQHLAALPVNVKIGKMLIFGAIFGCLDPVATLAAVMTEKSPFTTPIGRKDEADLAKSALAMADSDHLTIYNAYLGWKKARQEGGYRSEITYCRRNFLNRTSLLTLEDVKQELIKLVKAAGFSSSTTSTSWEGNRASQTLSFQEIALLKAVLVAGLYDNVGKIIYTKSVDVTEKLACIVETAQGKAQVHPSSVNRDLQTHGWLLYQEKIRYARVYLRETTLITPFPVLLFGGDIEVQHRERLLSIDGWIYFQAPVKIAVIFKQLRVLIDSVLRKKLENPKMSLENDKILQIITELIKTENN
binds: all assays above
